These results are taken from paper PMC10104900 (The Journal of Clinical Investigation, 2023).

Like-named read-outs stand apart in the source and are kept apart here.

Experiment [1] has as its target T1, SARS-CoV-2 WT RBD (SARS-CoV-2 WT (Wuhan-Hu-1), UniProt P0DTC2).
In the next experiment the target is spike BA.1-6P (SARS-CoV-2, Omicron BA.1, strain).
In experiment [2] the target is recombinant FL spike WT-2P (SARS-CoV-2 WT (Wuhan-Hu-1), stabilised, biotin (EZ-Link Sulfo-NHS-Biotin) in the BLI experiments).
The target of experiment [3] is recombinant FL spike WT-6P (SARS-CoV-2 WT (Wuhan-Hu-1), UniProt P0DTC2, stabilised, biotin (EZ-Link Sulfo-NHS-Biotin) in the BLI experiments).
The target of experiment [4] is T1, SARS-CoV-2 WT RBD. Kind of experiment: ELISA. The note with it: both partners purified.

B1: S626-161 (antibody, V domains shown)
VH: QLQLQESGPGLVKPSEALSLTCTVSGGSISTSNYYWGWIRQPPGKGLEWIGSIYYRGGTHYNPSLKTRVTISVDTSKNQFSLKLSSVTAADTAVYYCARHTYFYDIVGAAVWEPFDIWGQGTMVTVSS
VL: not shown
Take B1: the binding result (with SARS-CoV-2 WT RBD [1]; in the experiment with spike BA.1-6P; in experiment [2]; in experiment [3]) was “binds” each time.

B2: REGN10933 (Regeneron) (antibody, V domains shown)
VH: QVQLVESGGGLVKPGGSLRLSCAASGFTFSDYYMSWIRQAPGKGLEWVSYITYSGSTIYYADSVKGRFTISRDNAKSSLYLQMNSLRAEDTAVYYCARDRGTTMVPFDYWGQGTLVTVSS
VL: DIQMTQSPSSLSASVGDRVTITCQASQDITNYLNWYQQKPGKAPKLLIYAASNLETGVPSRFSGSGSGTDFTFTISGLQPEDIATYYCQQYDNLPLTFGGGTKVEIK
notes: source: HEK293T, transiently cotransfected, purified (protein A-agarose beads); copies: 2 + 2
On to B2, for which the binding result with SARS-CoV-2 WT RBD [4] is reported as “binds”.

B3: LY-CoV555 (Eli Lilly) (antibody, V domains shown)
VH: QVQLVQSGAEVKKPGSSVKVSCKASGGTFSNYAISWVRQAPGQGLEWMGRIIPILGIANYAQKFQGRVTITADKSTSTAYMELSSLRSEDTAVYYCARGYYEARHYYYYYAMDVWGQGTAVTVSS
VL: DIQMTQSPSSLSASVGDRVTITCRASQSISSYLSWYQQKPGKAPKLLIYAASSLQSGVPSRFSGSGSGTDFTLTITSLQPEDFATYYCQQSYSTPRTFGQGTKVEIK
Consider B3, for which, in the experiment with SARS-CoV-2 WT RBD [4], the binding result was “binds”.

B4: S728-1157 IgG (antibody, V domains shown)
VH: EVQLVESGGGLVQPGGSLRLSCAASGLLVSRNYMNWVRQAPGKGLEWVSIIYSGGSTFYADSVEGRFTISRDESKNTLYLQMNSLRTDDTAVYYCARDLSDYGGIDCWGQGTLVTVSS
VL: YELTQPLSVSMALGQTARISCGGDNVGSQNVHWYQQRPGQAPVLVIYRDSNRPSGIPERFSGSKSGNTATLTISRAQAGDEADYYCQVWDSSTVAFGGGTKLTVL
notes: copies: 2 + 2
In the case of B4, the binding result with SARS-CoV-2 WT RBD [4] is recorded as “binds”.

B5: S451-1140 (antibody, V domains shown)
VH: EVQLVESGGGLVPPGGSLRLSCAASGFIFSNYAMTWVRQAPGKGLEWVSAISGGGGSTDYADSVKGRFTISRDNSKNTLYLQMNSLRAEDTAVYYCAKDLFGSGWSLFDNWGQGTLVTVS
VL: not shown
For B5, the binding result (with SARS-CoV-2 WT RBD [1]; with spike BA.1-6P; in experiment [2]; in experiment [3]) was “binds” in each case.
